Laboratory results as given in PMC7954794, “Protein context shapes the specificity of SH3 domain-mediated interactions in vivo” (Nature Communications, 2021).

B1: ABP1 A11A (protein, UniProt P15891 2-592, looked up)
Actin-binding protein: ALEPIDYTTHSREIDAEYLKIVRGSDPDTTWLIISPNAKKEYEPESTGSSFHDFLQLFDETKVQYGLARVSPPGSDVEKIIIIGWCPDSAPLKTRASFAANFAAVANNLFKGYHVQVTARDEDDLDENELLMKISNAAGARYSIQTSSKQQGKASTPPVKKSFTPSKSPAPVSKKEPVKTPSPAPAAKISSRVNDNNDDDDWNEPELKERDFDQAPLKPNQSSYKPIGKIDLQKVIAEEKAKEDPRLVQKPTAAGSKIDPSSDIANLKNESKLKRDSEFNSFLGTTKPPSMTESSLKNDDDKVIKGFRNEKSPAQLWAERKAKQNSGNAETKAEAPKPEVPEDEPEGEPDVKDLKSKFEGLAASEKEEEEMENKFAPPPKKSEPTIISPKPFSKPQEPVKAEEAEQPKTDYKKIGNPLPGMHIEADNEEEPEENDDDWDDDEDEAAQPPLPSRNVASGAPVQKEEPEQEEIAPSLPSRNSIPAPKQEEAPEQAPEEEIEEEAEEAAPQLPSRSSAAPPPPPRRATPEKKPKENPWATAEYDYDAAEDNELTFVENDKIINIEFVDDDWWLGELEKDGSKGLFPSNYVSLGN
modifications: synonymous codon change A11A in SH3
B2: ABP1 D10D (protein, UniProt P15891 2-592, looked up)
Actin-binding protein: B1 Actin-binding protein
modifications: synonymous D10D codon change
B3: ABP1 Y7Y (protein, UniProt P15891 2-592, looked up)
Actin-binding protein: B1 Actin-binding protein
modifications: synonymous codon change Y7Y in SH3
B4: ABP1 Y9Y (protein, UniProt P15891 2-592, looked up)
Actin-binding protein: B1 Actin-binding protein
modifications: synonymous codon change Y9Y
B5: ABP1 V54V (protein, UniProt P15891 2-592, looked up)
Actin-binding protein: B1 Actin-binding protein
modifications: synonymous V54V
B6: ABP1 G57G (protein, UniProt P15891 2-592, looked up)
Actin-binding protein: B1 Actin-binding protein
modifications: synonymous G57G codon change in SH3 domain
B7: ABP1 N58N (protein, UniProt P15891 2-592, looked up)
Actin-binding protein: B1 Actin-binding protein
modifications: synonymous codon change N58N
B8: ABP1 S55S (protein, UniProt P15891 2-592, looked up)
Actin-binding protein: B1 Actin-binding protein
modifications: synonymous codon change S55S
B9: ABP1 D14D (protein, UniProt P15891 2-592, looked up)
Actin-binding protein: B1 Actin-binding protein
modifications: synonymous codon change D14D
B10: ABP1 E13E (protein, UniProt P15891 2-592, looked up)
Actin-binding protein: B1 Actin-binding protein
modifications: synonymous codon change E13E
B11: ABP1 E16E (protein, UniProt P15891 2-592, looked up)
Actin-binding protein: B1 Actin-binding protein
modifications: synonymous codon change E16E
B12: ABP1 L17L (protein, UniProt P15891 2-592, looked up)
Actin-binding protein: B1 Actin-binding protein
modifications: synonymous codon change L17L in SH3
B13: ABP1 N15N (protein, UniProt P15891 2-592, looked up)
Actin-binding protein: B1 Actin-binding protein
modifications: synonymous codon change N15N

Tested on: Lsb3
Experiment: Deep mutational scanning of Abp1 SH3, Abp1-Lsb3 DHFR-PCA (DMS score)
Assay type: cell-based, Saccharomyces cerevisiae
Settings: Abp1-Lsb3; frequencies scaled to the synonymous mutation distribution
Description: (§1) Single site mutation libraries were generated by a PCR-based saturation mutagenesis method[50] as described below. The mutagenesis was carried out on the pUC19 plasmid containing the SH3 domain sequence of ABP1 flanked by its homology arms subsequently used in the CRISPR mediated genomic re-integration. We used oligos containing degenerate nucleotides (NNN) to carry out the mutagenesis at each codon of the domain sequence. In the first step of the two-step PCR procedure (short PCR step), an amplicon was generated with an oligo containing the degenerate codon which is positioned within the domain sequence, and another oligo lying outside Abp1 sequence in the plasmid. Short PCR step was carried out with the following settings: 5 min at 95 °C, 35 cycles: 20 s at 98 °C, 15 s at 60 °C, 30 s at 72 °C, and a final extension of 1 min at 72 °C. The amplicon generated in this step was used as a mega primer in the second step (long PCR step) to amplify the whole plasmid. Long PCR step was carried out with the following settings: 5 min at 95 °C, 22 cycles: 20 s at 98 °C, 15 s at 68 °C, 3 min 30 s at 72 °C, and a final extension of 5 min at 72 °C. The long PCR product was digested for 2 h at 37 °C with DpnI. The digestion product was then transformed into E. coli MC1061 competent cells. In order to obtain most of the 64 possible codons, we recovered ~1000 colonies from each plate to retrieve the plasmid single mutant libraries. Saturation mutagenesis was carried out in a codon-position-wise manner. Mutants at each position were stored separately. Library quality control was assessed by amplifying the purified plasmid DNA preparations by PCR followed by Illumina sequencing as described below. The genomic insertion of the mutant libraries (one library per amino acid position) was performed by targeting the stuffer sequence in the ABP1 SH3-deleted strain as described in the strain construction section. ABP1 SH3-deleted yeast competent cells were co-transformed with pCAS containing the stuffer-specific gRNA and PCR amplified ABP1 SH3 single position mutated libraries from the pUC19 preparations. As for the library generation, ~1000 colonies from each plate were retrieved. Glycerol stocks of yeast cells were kept for each position (58 different stocks corresponding to the 58 amino acid positions of Abp1 SH3). The stocks were also validated by Illumina sequencing (see below).
(§2) Liquid DHFR-PCA experiments were performed following the generation of the ABP1 SH3 single position mutated yeast strains and were performed in biological independent duplicates. An overnight culture was started in YPD + NAT by adding the same number of cells from each yeast mutant strain (master pool). Then, the master pool and Hua2-DHFR F[3] or Lsb3-DHFR F[3] preys strains were mixed in YPD (2:1) for mating and incubated for 8 h at 30 °C. Diploid cells were selected the first time by transferring the mixture in a YPD + NAT + HPH (OD 0.5) culture for 16 h at 30 °C. The next day, the first diploid selection was transferred in SC complete pH 6.0 + NAT + HPH at 0.5 OD and the culture was grown for 24 h at 30 °C. The validation of the yeast mutant libraries was done the next day with a fraction of the diploid cells (first DHFR-PCA experiment time point without PCA selection, reference condition S2) by amplifying ABP1 SH3 genomic sequence followed by Illumina sequencing as described in the section below. Following the selection, diploid cells OD was read using a TECAN Infinite F200 Pro, and dilutions to 0.1 OD in PCA selection media without agar in a 50 mL tube was done. Tubes were incubated at 30 °C for 72 h (second-time point of the DHFR-PCA experiment, first PCA selection). A fraction of the cells (5U OD) was collected for Illumina sequencing. The cells from the first PCA step were grown for a second PCA selection step using the same procedures. […]

In order of falling “lsb3sc (DMS score)” value:
1. B1  0.4621
2. B2  0.006531
3. B3  -0.04736
4. B4  -0.3936

Same assay, conditions: Abp1-Lsb3 DHFR-PCA, DMS score

In order of falling “lsb3sc (frequencies scaled to the synonymous mutation distribution, DMS score)” value:
1. B8  0.2461
2. B6  -0.3559
3. B7  -0.6649
4. B5  -0.8004

Same assay, conditions: Abp1-Lsb3 DHFR-PCA, MTX2

In order of falling “LSB3_MTX2 (frequencies normalized to the reference condition)” value:
1. B8  1.746
2. B6  1.1444
3. B7  0.8354
4. B5  0.6999

Same assay, conditions: Abp1 SH3 DMS; Abp1-Lsb3 DHFR-PCA, MTX2; frequencies normalized to the reference condition

In order of falling “LSB3_MTX2 (frequency normalized to the reference condition)” value:
1. B1  1.962
2. B2  1.507
3. B3  1.453
4. B4  1.1067

Same assay, conditions: Frequencies scaled to the synonymous mutation distribution (DMS score); Lsb3

In order of falling “lsb3sc (DMS score)” value:
1. B11  0.1832
2. B13  0.1386
3. B10  -0.3311
4. B12  -0.4377
5. B9  -0.6602

Same assay, conditions: frequencies normalized to the reference condition; Abp1-Lsb3, MTX2

In order of rising LSB3_MTX2:
1. B9  0.8401
2. B12  1.063
3. B10  1.169
4. B13  1.639
5. B11  1.684

Tested on: Hua2 and Lsb3
Experiment: Classification of Abp1 SH3 mutations by effect on Hua2 and Lsb3 DMS scores (quadrant)
Assay type: cell-based, Saccharomyces cerevisiae
Settings: class of mutation by Hua2 and Lsb3 DMS scores (Dest. both, Dest. Hua2, Dest. Lsb3, Neutral)

In the case of B1, the quadrant is reported as “Neutral”.
In the case of B2, the quadrant is reported as “Neutral”.
B3 was tested, and the quadrant was “Neutral”.
In the case of B4, the quadrant is reported as “Neutral”.

Tested on: Hua2 and Lsb3 (Abp1-Hua2 and Abp1-Lsb3 PPIs)
Experiment: Deep mutational scanning of Abp1 SH3, quadrant classification from Hua2 and Lsb3 DMS scores
Assay type: cell-based, Saccharomyces cerevisiae
Settings: class from DMS scores for Hua2 and Lsb3

With B5 the quadrant was “Neutral”.
For B6, the quadrant was “Neutral”.
For B7, the quadrant was “Neutral”.
With B8 the quadrant was “Neutral”.

Tested on: Hua2
Experiment: Deep mutational scanning of Abp1 SH3, Abp1-Hua2 DHFR-PCA (DMS score)
Assay type: cell-based, Saccharomyces cerevisiae
Settings: Abp1-Hua2; frequencies scaled to the synonymous mutation distribution
Description: as §1, §2

In order of falling “hua2sc (DMS score)” value:
1. B1  0.2975
2. B3  0.2398
3. B2  -0.2777
4. B4  -0.7456

Same assay, conditions: Abp1-Hua2 DHFR-PCA, DMS score

In order of rising “hua2sc (frequencies scaled to the synonymous mutation distribution, DMS score)” value:
1. B7  -0.8159
2. B6  -0.4468
3. B5  -0.1199
4. B8  -0.05585

Same assay, conditions: Abp1-Hua2 DHFR-PCA, MTX2

In order of falling “HUA2_MTX2 (frequencies normalized to the reference condition)” value:
1. B8  1.557
2. B5  1.4929
3. B6  1.166
4. B7  0.7969

Same assay, conditions: Abp1 SH3 DMS; Abp1-Hua2 DHFR-PCA, MTX2; frequencies normalized to the reference condition

In order of falling “HUA2_MTX2 (frequency normalized to the reference condition)” value:
1. B1  1.91
2. B3  1.853
3. B2  1.335
4. B4  0.8672

Same assay, conditions: Frequencies scaled to the synonymous mutation distribution (DMS score); Hua2

In order of falling “hua2sc (DMS score)” value:
1. B11  0.3666
2. B9  0.002961
3. B13  -0.2193
4. B10  -0.2784
5. B12  -0.5458

Same assay, conditions: frequencies normalized to the reference condition; Abp1-Hua2, MTX2

In order of rising HUA2_MTX2:
1. B12  1.067
2. B10  1.334
3. B13  1.393
4. B9  1.616
5. B11  1.979

Tested on: Hua2 and Lsb3
Experiment: Quadrant classification of Abp1 SH3 variants from DMS scores (Abp1-Hua2 and Abp1-Lsb3 DHFR-PCA)
Assay type: cell-based, Saccharomyces cerevisiae
Settings: class by effect on Hua2 and Lsb3 PPIs (Dest. both / Dest. Hua2 / Dest. Lsb3 / Neutral)

With B9 the quadrant was “Neutral”.
B10 was tested, and the quadrant was “Neutral”.
B11 was tested, and the quadrant was “Neutral”.
B12 was tested, and the quadrant was “Neutral”.
In the case of B13, the quadrant is reported as “Neutral”.
